Positions of bridges follow the written chain, without caps; N, C: chain ends.

The values below come from patent publication US20160058829A1, “ANTI-FIBROTIC PEPTIDES AND THEIR USE IN METHODS FOR TREATING DISEASES AND DISORDERS CHARACTERIZED BY FIBROSIS” (Thrasos Innovation, Inc., priority 2011, published 2016).

Series [1] concerns human proximal tubule epithelial cells (HK2). As to the kind of experiment: D-glucose-induced EMT assay, E-cadherin immunofluorescence with colorimetric image analysis. Type of series: cell-based. The following applies: D-glucose 50 mM. How it is done:
Chronic hyperglycemia is a known cause of renal fibrosis in type 2 diabetes. The assay in this example induces the transdifferentiation from the epithelial to the mesenchymal phenotype (EMT) in human proximal tubule epithelial cells (HK2) by exposing them to high levels of D-glucose (100 mM and 200 mM). […] Exposure to 100 mM D-glucose results in the loss of E-cadherine expression as evidenced by the loss of the fluorescene signal. Using this assay test compounds are evaluated based on their ability to inhibit the EMT processes in the presence of high levels of D-glucose. FIGS. 4-16 are fluorescence micrographs of HK2 cells exposed to 100 mM D-glucose and 100 uM of SEQ IS NOs 1 through 11, respectively. Note that all but SEQ ID NOs 10 and 11 were able to preserve the epithelial phenotype (i.e., inhibit the EMT).
Results are provided in the context of FIG. 1 and Table 3, below. In Table 3 below, compound response is scored using image analysis as described herein in the method of Methods and Materials, part C. A 0% response corresponds to the signal for 100 mM (or 200 mM) D-glucose (untreated) while the 100% response corresponds to the signal for media in the absence of D-glucose.
It has been shown that transdifferentiation of proximal tubular epithelial cells is a critical step in the development of renal fibrosis, and that this is associated with a loss of the epithelial phenotypic marker, E-cadherin expression. This provides the basis for the development of a cell-based screening assay in which high concentrations of D-Glucose (50-100 mM) are used to induce a loss of E-cadherin expression in human renal proximal tubular epithelial (HK-2) cells, and compounds are tested for their ability to reverse the loss E-cadherin expression.
Materials: • Human proximal tubular epithelial cells, HK-2 (ATCC #CRL-2190) • Serum-free keratinocyte medium (GIBCO #17005-042, K-SFM) • Epidermal growth factor (EGF: 5 ng/mL) • Bovine pituitary extract (BPE: 40 ug/mL) • Primary antibody, Mouse IgG anti-E-cadherin (R&D Systems # MAB1838) • BSA [Sigma #A7030] • secondary antibody, FITC-conjugated Goat anti-mouse IgG (Fab2) fragment (Sigma-Aldrich # F-2653) • Paraformaldehyde (10%)) • Triton X-100 (Sigma # T-9284) • PBS (Fisher Scientific #BP399-1) • D-PBS (Invitrogen #14190-144) • Polypropylene tips (Axygen, Inc. 0.5-10 uL, cat # T-300-L-R; 1-200 uL, Cat # T-200-L-R; 1-1000 uL, Cat # T-1000-C-L-R) • 50 mL polypropylene culture tubes (Fisher Scientific, cat #06-443-18) • 24-well Coster cell culture plates (Fisher Scientific #07-200-84)
Reagents & Test Samples: • Positive control: BMP-7, assayed at concentrations 0.1 and 1 ug/mL • Test compounds (peptides): each tested at final concentrations 100 uM and 200 uM.
Assay Procedure for Cell Culture Assay: • Run assay in 24-well culture plates. • Seed HK-2 cells at a density between 25,000 and 30,000 cells per well in lmL K-SFM medium with supplements added (growth medium) • Incubate HK-2 cells for 24 hours at 37° C., and let cells attach the plate • Next Day afternoon, change the medium with K-SFM medium with no added supplements (serum free medium) in all wells except the first two control wells. • Continue incubating HK-2 cells overnight at 37° C. • Next Day, aspirate the medium from all wells. Incubate the cells in growth medium (first two control wells) or expose them to test compounds for 2 hours at 37° C. Final concentrations of each Test compound are 100 and 200 uM. BMP-7 serves as a positive control in the assay. • After incubation, add D-glucose to all wells except first two control wells. Final concentrations of D-Glucose are 50 and 100 mM. • Incubate HK-2 cells for 60 hours at 37° C. • Aspirate the medium from all wells. To the wells, add pre-warmed growth medium or serum free medium containing D-glucose alone or D-glucose and test compound or D-glucose and BMP-7. Final concentrations of D-Glucose and Test compound are the same as above. • Continue incubating HK-2 cells for 24 hours at 37° C. […]

Series [2] is described as follows: In vitro stability in rat blood, plasma and PBS-mannitol buffer (LC-MS-MS). Type of series: in vitro ADME. To be noted: 0.1 mg/mL, 37° C. The method, then: FIG. 46 In vitro stability of THR-123. THR-123 was spiked into freshly harvested rat blood (male Sprague-Dawley, 0.35 kg BW) and plasma, and PBS-mannitol buffer solution at a final concentration of 0.1 mg/mL. Blood, plasma and buffer master tubes were incubated at 37° C. for up to 6 h and duplicate samples of 500 μl (blood) and 250 μl (plasma and […]) were collected for analysis at 0, 7.5, 15, 30, 60, 120, 240 and 360 min. Samples were analyzed for THR-123 using an LC-MS-MS method having a limit of detection of 1 μg/ml.
The stability of THR-123 in whole blood and plasma was tested in vitro. In PBS-mannitol buffer, THR-123 was stable for over 400 minutes (FIG. 46).

On to “(H)-CYFDDSSNVLCKKYRS-(OH) (H-CYFDDSSNVLCKKYRS-OH; disulfide 1-11; SMILES CC(C)C[C@@H]1NC(=O)[C@H](C(C)C)NC(=O)[C@H](CC(N)=O)NC(=O)[C@H](CO)NC(=O)[C@H](CO)NC(=O)[C@H](CC(=O)O)NC(=O)[C@H](CC(=O)O)NC(=O)[C@H](Cc2ccccc2)NC(=O)[C@H](Cc2ccc(O)cc2)NC(=O)[C@@H](N)CSSC[C@@H](C(=O)N[C@@H](CCCCN)C(=O)N[C@@H](CCCCN)C(=O)N[C@@H](Cc2ccc(O)cc2)C(=O)N[C@@H](CCCNC(=N)N)C(=O)N[C@@H](CO)C(=O)O)NC1=O) [SEQ ID NO: 1]”, for which the “prevention of D-glucose induced loss of epithelial phenotype (E-cadherin expression)” value in series [1] is given as “effectively prevents”. In series [2], the “half-life in rat plasma” value is 5.97 h and the “half-life in rat whole blood” value came out at 1.17 h.
